Source: IntAct's records for PubMed 29892012

B1: Casein kinase II subunit alpha (Homo sapiens), P68400 (parent)
chain: MSGPVPSRARVYTDVNTHRPREYWDYESHVVEWGNQDDYQLVRKLGRGKYSEVFEAINITNNEKVVVKILKPVKKKKIKREIKILENLRGGPNIITLADIVKDPVSRTPALVFEHVNNTDFKQLYQTLTDYDIRFYMYEILKALDYCHSMGIMHRDVKPHNVMIDHEHRKLRLIDWGLAEFYHPGQEYNVRVASRYFKGPELLVDYQMYDYSLDMWSLGCMLASMIFRKEPFFHGHDNYDQLVRIAKVLGTEDLYDYIDKYNIELDPRFNDILGRHSRKRWERFVHSENQHLVSPEALDFLDKLLRYDHQSRLTAREAMEHPYFYTVVKDQARMGSSSMPGGSTPVSSANMMSGISSVPTPSPLGPLAGSPVIAAANPLGMPVPAAAGAQQ
partner: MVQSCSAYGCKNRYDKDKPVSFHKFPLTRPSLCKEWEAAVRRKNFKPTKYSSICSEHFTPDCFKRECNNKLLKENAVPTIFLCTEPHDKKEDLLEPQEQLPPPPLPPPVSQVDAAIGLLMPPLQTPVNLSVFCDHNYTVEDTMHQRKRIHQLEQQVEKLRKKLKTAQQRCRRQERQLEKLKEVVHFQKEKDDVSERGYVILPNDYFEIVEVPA
B2: Ribosome assembly protein METTL17, mitochondrial (Homo sapiens), Q9H7H0 (parent)
chain: MAAALKCLLTLGRWCPGLGVAPQARALAALVPGVTQVDNKSGFLQKRPHRQHPGILKLPHVRLPQALANGAQLLLLGSAGPTMENQVQTLTSYLWSRHLPVEPEELQRRARHLEKKFLENPDLSQTEEKLRGAVLHALRKTTYHWQELSYTEGLSLVYMAARLDGGFAAVSRAFHEIRARNPAFQPQTLMDFGSGTGSVTWAAHSIWGQSLREYMCVDRSAAMLVLAEKLLKGGSESGEPYIPGVFFRQFLPVSPKVQFDVVVSAFSLSELPSKADRTEVVQTLWRKTGHFLVLVENGTKAGHSLLMDARDLVLKGKEKSPLDPRPGFVFAPCPHELPCPQLTNLACSFSQAYHPIPFSWNKKPKEEKFSMVILARGSPEEAHRWPRITQPVLKRPRHVHCHLCCPDGHMQHAVLTARRHGRDLYRCARVSSWGDLLPVLTPSAFPPSTAQDPSES
partner: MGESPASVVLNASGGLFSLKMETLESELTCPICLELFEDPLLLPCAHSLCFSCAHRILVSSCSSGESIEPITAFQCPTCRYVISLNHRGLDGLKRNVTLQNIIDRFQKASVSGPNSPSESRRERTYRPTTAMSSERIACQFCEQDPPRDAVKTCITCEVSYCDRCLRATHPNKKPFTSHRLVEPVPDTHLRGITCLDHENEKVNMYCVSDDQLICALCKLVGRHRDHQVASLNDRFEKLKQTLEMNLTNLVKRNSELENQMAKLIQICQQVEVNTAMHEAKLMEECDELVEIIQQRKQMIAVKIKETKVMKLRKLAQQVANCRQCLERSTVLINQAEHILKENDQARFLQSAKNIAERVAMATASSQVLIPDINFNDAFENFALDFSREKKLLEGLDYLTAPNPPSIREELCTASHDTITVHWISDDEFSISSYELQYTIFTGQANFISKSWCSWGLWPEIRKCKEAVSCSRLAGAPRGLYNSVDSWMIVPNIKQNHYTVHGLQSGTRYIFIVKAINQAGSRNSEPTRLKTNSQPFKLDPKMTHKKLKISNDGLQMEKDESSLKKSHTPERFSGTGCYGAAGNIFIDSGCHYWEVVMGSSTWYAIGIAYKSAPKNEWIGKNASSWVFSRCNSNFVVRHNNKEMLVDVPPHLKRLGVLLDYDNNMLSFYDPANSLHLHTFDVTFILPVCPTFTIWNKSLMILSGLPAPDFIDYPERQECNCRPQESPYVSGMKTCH
B3: Protein VAC14 homolog (Homo sapiens), Q08AM6 (parent)
chain: MNPEKDFAPLTPNIVRALNDKLYEKRKVAALEIEKLVREFVAQNNTVQIKHVIQTLSQEFALSQHPHSRKGGLIGLAACSIALGKDSGLYLKELIEPVLTCFNDADSRLRYYACEALYNIVKVARGAVLPHFNVLFDGLSKLAADPDPNVKSGSELLDRLLKDIVTESNKFDLVSFIPLLRERIYSNNQYARQFIISWILVLESVPDINLLDYLPEILDGLFQILGDNGKEIRKMCEVVLGEFLKEIKKNPSSVKFAEMANILVIHCQTTDDLIQLTAMCWMREFIQLAGRVMLPYSSGILTAVLPCLAYDDRKKSIKEVANVCNQSLMKLVTPEDDELDELRPGQRQAEPTPDDALPKQEGTASGGPDGSCDSSFSSGISVFTAASTERAPVTLHLDGIVQVLNCHLSDTAIGMMTRIAVLKWLYHLYIKTPRKMFRHTDSLFPILLQTLSDESDEVILKDLEVLAEIASSPAGQTDDPGPLDGPDLQASHSELQVPTPGRAGLLNTSGTKGLECSPSTPTMNSYFYKFMINLLKRFSSERKLLEVRGPFIIRQLCLLLNAENIFHSMADILLREEDLKFASTMVHALNTILLTSTELFQLRNQLKDLKTLESQNLFCCLYRSWCHNPVTTVSLCFLTQNYRHAYDLIQKFGDLEVTVDFLAEVDKLVQLIECPIFTYLRLQLLDVKNNPYLIKALYGLLMLLPQSSAFQLLSHRLQCVPNPELLQTEDSLKAAPKSQKADSPSIDYAELLQHFEKVQNKHLEVRHQRSGRGDHLDRRVVL
partner: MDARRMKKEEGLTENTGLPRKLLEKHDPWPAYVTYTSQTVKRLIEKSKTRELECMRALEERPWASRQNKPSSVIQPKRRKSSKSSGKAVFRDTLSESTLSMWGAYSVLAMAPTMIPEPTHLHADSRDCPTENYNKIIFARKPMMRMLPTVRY
B4: Inositol polyphosphate 5-phosphatase K (Homo sapiens), Q9BT40 (parent)
chain: MSSRKLSGPKGRRLSIHVVTWNVASAAPPLDLSDLLQLNNRNLNLDIYVIGLQELNSGIISLLSDAAFNDSWSSFLMDVLSPLSFIKVSHVRMQGILLLVFAKYQHLPYIQILSTKSTPTGLFGYWGNKGGVNICLKLYGYYVSIINCHLPPHISNNYQRLEHFDRILEMQNCEGRDIPNILDHDLIIWFGDMNFRIEDFGLHFVRESIKNRCYGGLWEKDQLSIAKKHDPLLREFQEGRLLFPPTYKFDRNSNDYDTSEKKRKPAWTDRILWRLKRQPCAGPDTPIPPASHFSLSLRGYSSHMTYGISDHKPVSGTFDLELKPLVSAPLIVLMPEDLWTVENDMMVSYSSTSDFPSSPWDWIGLYKVGLRDVNDYVSYAWVGDSKVSCSDNLNQVYIDISNIPTTEDEFLLCYYSNSLRSVVGISRPFQIPPGSLREDPLGEAQPQI
partner: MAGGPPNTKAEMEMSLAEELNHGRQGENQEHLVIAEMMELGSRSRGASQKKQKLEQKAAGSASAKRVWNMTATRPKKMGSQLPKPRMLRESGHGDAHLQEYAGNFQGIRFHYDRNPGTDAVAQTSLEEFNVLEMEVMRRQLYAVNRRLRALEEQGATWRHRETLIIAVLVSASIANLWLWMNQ

Variants of: B1
Conditions: with thap1_human THAP1, Q9NVV9

| effect of a mutation on the interaction | Variant |
| --- | --- |
| with no effect | K198R |

Variants of: B2
Conditions: with trim1_human MID2, Q9UJV3

| effect of a mutation on the interaction | Variant |
| --- | --- |
| disrupting interaction strength | R212H |

Variants of: B3
Conditions: with cdrt4_human CDRT4, Q8N9R6

| effect of a mutation on the interaction | Variant |
| --- | --- |
| with no effect | A127S |

Variants of: B4
Conditions: with fate1_human FATE1, Q969F0

| effect of a mutation on the interaction | Variant |
| --- | --- |
| disrupting interaction strength | R437K |
